# Results taken from the DeepSol protein solubility set.
# Assay: soluble on expression in E. coli; label from the status in PepcDB or PDB records
row,Sequence,soluble on expression in E. coli
1,MGSDKIHHHHHHMEPHWDDMKVFLAVAREESLSGAGRQLKLDPATVGRRIARLESAYDTPLFAKSPQGYTLTAAGERLLSHGEQAEAAMRSASEALAGTTEGLTGQIRIGAPDGSANYLLPQVCAQISDENPELDIQILALPRIINLSRREADMAVTVSAPTAGHLLVQKITDYKLHMVASRRYLRGHPPIETLADLRGHRMIGYIPDMIFDRELDYLNDIGIERVALASNSVSVQLRQAGHGSGICVAHDFTLPFHGNLRRILTDQVSLTRSFYLVRHQGDQRSERLNRFAEALTRGIRDEVARLEADAMS,not soluble
2,MAHHHHHHMNIKRSIYHYLSYSSFLIKNHYHHNNTIYPCFHSLRNNNKMSYFRPNYFICIPIKNDNICNELINIQKHVLVKYDELKDCIIERNKFHISLLILHIKKNQIELSKEAFNEAMEKIKKNMHNEKICFEKLDTFRNDVLYLSLKEDSNKYIINIINHLIDSFSKRGIKIIFNNKKPAKEILSNNNKKELNKNSNDLQHITPHLTLMKNSYMKKMYMNKKPQILPFFYTDYDLTNLLKEQIDIQKIQFLEMDMDTSTSYYKIVSEFNL,not soluble
3,MAHHHHHHMPEPLEETFSRVLSAKVARAKRVFGGDINETYRLEMEKDDVVYFLKLQRGTTADFYAAESLGLSLLSDVARTPRVVQTGEVNGDAYLIMTWIQSFPSAMRGGVRRNMAELGRMVAIVHRQTSPNGQFGSSVAVPLAGCKTSAGWSKDWATYYIESLLAPQVALARRKGYWSDRREAMFVAFSKRFCAFYASKKNVQPSLLHGDLWGGNVMYGESGEPYLIDPSSYYGHREVDIAMTRLFGGFGSEFYTAYEGEMPLEAGHASRVPWYQLLPLLCHLNLFGEAYGSSVDSAMAHVL,not soluble
4,MPRIITRPFLFSPLTLCISAVASAAKTAVKRKKLFTAVLALSWAFSVTAAERIVVAGGSLTELIYAMGAGERVVGVDETTSYPPETAKLPHIGYWKQLSSEGILSLRPDSVITWQDAGPQIVLDQLRAQKVNVVTLPRVPATLQQMYANIRQLAKTLQVPEQGEALVTQISQRLERVQQNVATKKAPVKAMFILSAGGSAPQVAGKGSVADAILSLAGAENVATHQQYKSYSAESLIAANPEVIVVTSQMVDGDINRLRSIAGITHTAAWKNQRIITVDQNLILGMGPRIADVVESLHQQLWPQ,not soluble
5,MSLRRTRIRFEAWTAENAHRYHSLAHALPQLGARRPTGLLLDEAGRAAIPFLRTGQFIIGLGDPAGSERNCVAAIWRLRDLALQEGCKLAFIQVGQSLMAVYNDLGLTVCPDRTAGTVCCFSEDYRMLRAFLKGEERLARKREGHHHHHH,not soluble
6,MKETTIYGRLVMAVKNTAQVVIGGKIITLGGYESEEYFQKVASYINNKIAELSEMPGYTRQPVETKHTLLSLNVTDDYFKAKKQAEIFEQDLQQKDQEMYELKHELIALRMKIEETEKNAQEAQQQKELLEGKVKELNDEIDKLLK,not soluble
7,MVKLENSRKPEKISNKNIPMSDFVVNLDHGDPTAYEEYWRKMGDRCTVTIRGCDLMSYFSDMTNLCWFLEPELEDAIKDLHGVVGNAATEDRYIVVGTGSTQLCQAAVHALSSLARSQPVSVVAAAPFYSTYVEETTYVRSGMYKWEGDAWGFDKKGPYIELVTSPNNPDGTIRETVVNRPDDDEAKVIHDFAYYWPHYTPITRRQDHDIMLFTFSKITGHAGSRIGWALVKDKEVAKKMVEYIIVNSIGVSKESQVRTAKILNVLKETCKSESESENFFKYGREMMKNRWEKLREVVKESDAFTLPKYPEAFCNYFGKSLESYPAFAWLGTKEETDLVSELRRHKVMSRAGERCGSDKKHVRVSMLSREDVFNVFLERLANMKLIKSIDL,soluble
8,MQLLITGGTGLIGRHLIQRLQLLSHHITVLTRDPERARGVLGNQVEYWSTLSNITSLNDFDGVINLAGEPIADKRWTPQQKQRLAQSRWSITEQLATLIKASSEPPTVFISGSAVGYYGDQGEALVTEGESPVDEFTHHLCTRWEALAQSAESDKTRVCLLRTGIVLSAQGGALAKMLPIFRLGLGGPMGSGKQYMPWIHIDDMVNGIIYLLDQPILRGPFNMVAPYPVHNEQFSAMLAHVLDRPGFLRAPAFAMKLLMGEASTLVLGGQRAIPQRLEAAGFGFRFFELEEALQDVTKKPGLEHHHHHH,soluble
9,MVIHIPVRESNYIEKILLPVMVYFIVNVKQNEWIYTILKEKFFYEEQEECHQILHMAHEILKGRRKGVAQDLTRNAFESYIKSSLNNWLCDPLSFSFSSYIRFRLRTYREMVAKLAEVAIDEYKMEQEYQMFIETLRQQVSSRKSRLSCVHLIFDESFIFYDDKGRRLKQEKLVQYIDEELLKQNDVYIDTKVIAPLLSISPKKIYLYTKEQDHNMIITLRNVFQERVQLHGLHDFERNVKNLKNKGNALDFLSFLEHHHHHH,soluble
10,MRPLILSIFALFLAGCTHSQQSMVDTFRASLFDNQDITVADQQIQALPYSTMYLRLNEGQRIFVVLGYIEQEQSKWLSQDNAMLVTHNGRLLKTVKLNNNLLEVTNSGQDPLRNALAIKDGSRWTRDILWSEDNHFRSATLSSTFSFAGLETLHIAGRDVLCNVWQEEVTSTLPEKQWQNTFWVDSATGQVRQSRQMLGAGVIPVEMTFLKPAP,not soluble
11,MIDSIRVEGFRGLKELELSSLRRINVIVGRNNSGKSTLLEALSLFLGSSDPGTFGNVLHEILIWRGWYGIQTVDDLFYNGGDSFSISSTGKTLEALNSKHSLEFKLNGEPFYKIDRESIRRLASQAVLLARFSPKENFEFLTPLTFRRFGYAESLYSYAYERKVVKDSIKVLNEAYPEVEGFSPLLKEDNWVLYVETKYGVYPYYLMGEGFKSAMIISFLSSLLRDGVLLIDSAEAFHHPKSLKVMIQTLVRGSEKNNVQVFLTTHSLELLDLMLEMGRDGFVIYMKNVEGRIEVESIEFQRASELRESIGVDLRGFLEHHHHHH,soluble
12,GPLGSKAPTVFSQNEASLLNQLKNIANREDYVVTWWDYGYPVRYYSDVKTLVDGGKHLGKDNFFPSFALSKDEQAAANMARLSVEYTEKSFYAPQNDILKSDILQAMMKDYNQSNVDLFLASLSKPDFKIDTPKTRDIYLYMPARMSLIFSTVASFSFINLDTGVLDKPFTFSTAYPLDVKNGEIYLSNGVVLSDDFRSFKIGDNVVSVNSIVEINSIKQGEYKITPIDDKAQFYIFYLKDSAIPYAQFILMDKTMFNSAYVQMFFLGNYDKNLFDLVINSRDAKVFKLKI,soluble
13,MWKIMRSWKCGGMRWAHRQRPSHELLSQLSFDQHYKIRSNIELLIQDYASKPIAPLNYEYFLQYRPPLTKKEEYMLTIKTINLLLSLTCKRLNAIQRLPYNAVINPHIERTNSLYLKSLQTLLSIAYPYELHNPPKIQAKFTELLDDHEDAIVVLAKGLQEIQSCYPKFQISQFLNFHLKERITMKLLVTHYLSLMAQNKGDTNKRMIGILHRDLPIAQLIKHVSDYVNDICFVKFNTQRTPVLIHPPSQDITFTCIPPILEYIMTEVFKNAFEAQIALGKEHMPIEINLLKPDDDELYLRIRDHGGGITPEVEALMFNYSYSTHTQQSADSESTDLPGEQINNVSGMGFGLPMCKTYLELFGGKIDVQSLLGWGTDVYIKLKGPSKTALLSKK,soluble
14,MNNVFVYCEIEGTTVADVSLELLTKGRKLANQLGCQLEAIAAGTGLAGIEKQVLPYGVDKLHVFDAPGLFPYTSLPHTSILVNLFKEEKPQICLMGATVIGRDLGPRVSSALTSGLTADCTQLEIGTHEDKKNGITYENLLYQIRPAFGGNIVATIVNPEHRPQMATVREGVMKKEILDENYKGEVVNHDVAKFVPETDYVV,not soluble
15,MRILWILPYSPWPTTSGGKTRQYHLLRSLAARGHRITVLLHSKQPVSAEDRQALEPFLERLVVLPRRPLRSLSTLLAALFAPYPLLASVNGLSAELQRTATELLREPWDVVQVEHSYSFQPYERPLRDAGQPFVLTEHNVESSLGAATYDRLPGWALPFVRYDQWRYRRWERRVMSQAAAVVAVTEKDARQLGAMLGRPVPVVVNGVDCEHFATARPTPEAQRVLFLGNYEYAPNVDAVEWMLDEILPRVWAHCPEARMSVCGYALPAEWAQRWSDPRIEWQGFVPDLLQLQSSSSVFLAALRHGGGSKLKVLEALAAGLPLASTAQGVSGLELRDGEDYLGGESAEQLANAVVRLLQDPAQARALGENGRAYVRRAHDWSVAASQLEQVYAGLAEGAPACA,not soluble
16,MPDQISVSEFVAETLEDYKAPTASSFTRTAQCRNTAAAIEEDAVTYDDVHVNFTREEWNLLHPSQKSLYKDVMLETYWNLTVIGYTWENHHIERHCQSSRRNERFSLHCQLP,not soluble
17,MGSDKIHHHHHHMNREFYGKIIISGEIEAVTGLHIGSQREVSEIGGIDNPVIKDPHTGLPYIPGSSLKGRLRSLFEIYVNTRLDELKSKYSSLSNYSKGSCRDVGKENCGKFFNKKLNNVWIHVCSTYEMARNCPVCRLYGSSGKESNFPSRLIVRDAFLTEEWKKKWENGEAITEAKIEVGIDRVTSQANPRTTERVVAGTRFDFEIIYTIEDLKEWKDDLRNLLTSMLLLEDSYLGGSGSRGYGKVRFHVKGLELRPLEYYRTGDEGKIVKKTEYERVEDLLKNFETITSEFDRRVGGIEG,not soluble
18,MLSTGTKSLDSLLGGGFAPGVLTQVYGPYASGKTTLALQTGLLSGKKVAYVDTEGGFSPERLVQMAETRGLNPEEALSRFILFTPSDFKEQRRVIGSLKKTVDSNFALVVVDSITAHYRAEENRSGLIAELSRQLQVLLWIARKHNIPVIVINQVHFDSRTEMTKPVAEQTLGYRCKDILRLDKLPKPGLRVAVLERHRFRPEGLMAYFRITERGIEDVE,soluble
19,MELTLESQGYLESLYRAYLEDPLSLPEDWRRYFSALTLEDLEDGRRERQAAPLPGEALDLGFLLKVEALRQAYRELGHLAARIDPLGRERPRPKALSLEAHGLSPEDLKRPLPPLFGAPTLGALLERLEATYLGPVGFEVAHVEPEERAWLLSRIEAPWPKPAPEVRRRVLRSLLQASLFEAFLQRKYLGAKTFSVEGLESLIPLLQEAVQEAARFGVREVVLGMAHRGRLNVLAHVVEKPFEAIFREFEELFPEGYVGDVKYHLGHSTDVETPWGPVHVSLNFNPSHLEFVNPVALGRVRAKQDRFGDRERKRGLAVLVHGDAAFIGEGIVQETLNLSQLPGYRVGGTLHVVANNQLGFTTLPSEYTSSRYPTDVAKMVGAPIFHVNAEALDELLFVLALALEYRSRYGKDVVIDLVGYRRRGHNETDEPTFTQPGMYALIAKKPEPWRVYAERLEAEGLVSEEELKAWQEAYLERLESEFARVKAEATPVVYSTLGGVWQGYVGGPDHLVPEADTAFPKEGLKNLLVRLSSVPEGFQVHPKLKRFLEARREMAEEKRPVDWATAEALAFATLAVEGHRVRLTGQDALRGTFTQRHAALYDYRTGERYIPLQHLAEGQAEVEIHNSPLSEAGVLGFEYGYSLDYPEGLVLWEAQFGDFVNVAQVYIDQFLASAEVKWNRLSGLVLLLPHGLEGQGPEHSSARLERFLQLAAKDNLQVAYPTTPAQFFHLLRRQVKRKIRKPLVVMTPKSLLRHPEVVSALEELAEGRFQKVIPERVKGARKVLLTSGKVYYDLLQKRKELQAEDVAILRLELLYPFPEAELQEALGAYPKKVPVVFVQEEPVNQGAWWYLSARFCGEIYGHPFSVVARPESPSPAVGSSKVHKLEQEELLEEAFR,soluble
20,MARMNRPAPVEVTYKNMRFLITHNPTNATLNKFIEELKKYGVTTIVRVCEATYDTTLVEKEGIHVLDWPFDDGAPPSNQIVDDWLSLVKIKFREEPGCCIAVHSVAGLGRAPVLVALALIEGGMKYEDAVQFIRQKRRGAFNSKQLLYLEKYRPKMRLRFKDSNGHRNNCCIQ,soluble
21,DYKDIVLTQSHKFMSTSVGDRVSITCKASQDVGTAVAWYQQKPGQSPKLLIYWASTRHTGVPDRFTGSGSGTDFTLTISNVQSEDLADYFCQQYSSYPLTFGAGTKLELKRGGGGSGGGGSGGGGSGGGGSQVQLQESGGELVRPGASVKLSCKASGYTFTSYWINWVKQRPGQGLEWIGNIYPSDSYTNYNQKFKDKATLTVDKSSSTAYMQLSSLTSEDSAVYFCARWGYWGQGTLVTVSAASGAHHHHH,soluble
